{"source": "paper PMC3970815", "about": "(Biochemistry, 2014)", "binders": {"B1": {"name": "Wild-type human gamma-glutamyl carboxylase (GGCX) with a carboxyl-terminal 12-amino acid epitope tag, embedded in DOPC/MSP1D1 nanodiscs (enzyme, UniProt P38435 1-758, looked up)", "chain": "MAVSAGSARTSPSSDKVQKDKAELISGPRQDSRIGKLLGFEWTDLSSWRRLVTLLNRPTDPASLAVFRFLFGFLMVLDIPQERGLSSLDRKYLDGLDVCRFPLLDALRPLPLDWMYLVYTIMFLGALGMMLGLCYRISCVLFLLPYWYVFLLDKTSWNNHSYLYGLLAFQLTFMDANHYWSVDGLLNAHRRNAHVPLWNYAVLRGQIFIVYFIAGVKKLDADWVEGYSMEYLSRHWLFSPFKLLLSEELTSLLVVHWGGLLLDLSAGFLLFFDVSRSIGLFFVSYFHCMNSQLFSIGMFSYVMLASSPLFCSPEWPRKLVSYCPRRLQQLLPLKAAPQPSVSCVYKRSRGKSGQKPGLRHQLGAAFTLLYLLEQLFLPYSHFLTQGYNNWTNGLYGYSWDMMVHSRSHQHVKITYRDGRTGELGYLNPGVFTQSRRWKDHADMLKQYATCLSRLLPKYNVTEPQIYFDIWVSINDRFQQRIFDPRVDIVQAAWSPFQRTSWVQPLLMDLSPWRAKLQEIKSSLDNHTEVVFIADFPGLHLENFVSEDLGNTSIQLLQGEVTVELVAEQKNQTLREGEKMQLPAGEYHKVYTTSPSPSCYMYVYVNTTELALEQDLAYLQELKEKVENGSETGPLPPELQPLLEGEVKGGPEPTPLVQTFLRRQQRLQEIERRRNTPFHERFFRFLLRKLYVFRRSFLMTCISLRNLILGRPSLEQLAQEVTYANLRPFEAVGELNPSNTDSSHSNPPESNPDPVHSEF", "modifications": "glycoprotein (glycosylation sites shown in Figure 3); disulfide bond between cysteine 99 and cysteine 450"}}, "molecular_target": "T1, fluorescein-labeled consensus propeptide (FpCon)", "T1 peptide": "fluorescein-AVFLSREQANQVLQRRRR", "assay": "fluorescence polarisation", "note": "Ends that are not written are not given here. fluorescein = fluorescein label, on the N-terminus", "data": [{"binder": "B1", "values": [{"measurement": "stoichiometry N", "result": "1 propeptide per GGCX-nanodisc"}]}]}
